Data as given in publication PMC6796740.

B1: TR14 ST1-2 (32 nt) (structured_RNA)
RNA: AAUGCGUUCACGUUUAUUCACAUUUUUGAAUU
modifications: 2'-F pyrimidines presumed, not restated for truncates
B2: TR14 ST1-1 (40 nt) (structured_RNA)
RNA: GCUCAAUGCGUUCACGUUUAUUCACAUUUUUGAAUUGAGC
modifications: 2'-F pyrimidines presumed, not restated for truncates

Target: human transferrin receptor (hTfR, hTfR1) extracellular domain (Homo sapiens, UniProt P02786 89-760)
Test: SPR

Chain of human transferrin receptor (hTfR, hTfR1) extracellular domain (P02786 89-760): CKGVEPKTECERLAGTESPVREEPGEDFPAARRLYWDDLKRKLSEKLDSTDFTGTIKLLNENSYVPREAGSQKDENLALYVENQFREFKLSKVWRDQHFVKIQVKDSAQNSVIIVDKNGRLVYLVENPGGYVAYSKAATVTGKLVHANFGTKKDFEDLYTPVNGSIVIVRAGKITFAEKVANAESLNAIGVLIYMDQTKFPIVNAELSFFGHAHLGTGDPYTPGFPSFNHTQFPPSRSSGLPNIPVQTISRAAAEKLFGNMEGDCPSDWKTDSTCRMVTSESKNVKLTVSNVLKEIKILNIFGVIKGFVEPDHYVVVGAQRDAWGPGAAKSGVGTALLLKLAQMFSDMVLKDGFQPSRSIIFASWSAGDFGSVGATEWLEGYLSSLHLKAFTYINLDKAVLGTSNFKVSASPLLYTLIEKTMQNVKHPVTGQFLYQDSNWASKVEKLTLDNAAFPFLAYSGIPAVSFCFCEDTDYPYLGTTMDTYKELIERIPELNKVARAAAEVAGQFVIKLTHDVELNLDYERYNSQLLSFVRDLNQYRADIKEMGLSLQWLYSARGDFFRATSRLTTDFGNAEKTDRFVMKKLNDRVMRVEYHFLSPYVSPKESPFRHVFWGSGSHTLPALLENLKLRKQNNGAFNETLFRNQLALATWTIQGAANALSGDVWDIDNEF

Binder | binding result
B1 | no binding
B2 | no binding
